# Substitutions are numbered along the chain they refer to.
# B1: SPK002M A4 antibody (antibody, human IgG1, kappa, V domains shown)
# VH: EVQLVESGGGLIQPGGSLRLSCAASVITVTSNYMSWVRQAPGKGLEWVSVIYPGGSTFYADSVKGRFTISADNSKNTLYLQMNSLRAEDTAVYYCARDLVVYGMDVWGQGTTVTVSS
# VL: EIVLTQSPGTLSLSPGERATLSCRASQSVSSSYLAWYQQKPGQAPRLLIYGASSRATGIPGRFSGSGSGTDFTLTISRLEPEDFAVYYCQQGVTFGGGTKVEIKR
# B2: SPK002M B1 antibody (antibody, human IgG1, kappa, V domains shown)
# VH: B1 VH with V26I, A71Y
# VL: B1 VL with S31D, V86I, Q91Y
# B3: SPK002M A5 antibody (antibody, human IgG1, kappa, V domains shown)
# VH: B1 VH
# VL: B1 VL with V86I
# B4: SPK002M B2 antibody (antibody, human IgG1, kappa, V domains shown)
# VH: B1 VH with V26I, A71Y
# VL: B1 VL with V86I
# Columns and labels:
# [1] = target: T1, recombinant SARS-CoV-2 Spike RBD domain, Delta variant (SARS-CoV-2); test: ELISA on coated RBD
# T1 construct: also called RBD Delta variant
# [2] = target: T2, recombinant SARS-CoV-2 Spike RBD domain, BA.2.86 variant (SARS-CoV-2); test: ELISA on coated RBD
# T2 construct: also called RBD BA.2.86 variant
# [3] = target: T3, recombinant SARS-CoV-2 Spike RBD domain, XBB.1.5 variant (SARS-CoV-2); test: ELISA on coated RBD
# T3 construct: also called RBD XBB.1.5 variant
# [4] = target: T4, recombinant SARS-CoV-2 Spike RBD domain, BA.2.75.2 variant (SARS-CoV-2); test: ELISA on coated RBD
# T4 construct: also called RBD BA.2.75.2 variant
# [5] = target: T5, recombinant SARS-CoV-2 Spike RBD domain, EG.5 variant (SARS-CoV-2); test: ELISA on coated RBD
# T5 construct: also called RBD EG.5.1 variant
# [6] = target: T6, recombinant SARS-CoV-2 Spike RBD domain, JN-1 variant (SARS-CoV-2); test: ELISA on coated RBD
# T6 construct: also called RBD JN-1 variant
# [7] = target: T7, recombinant SARS-CoV-2 Spike RBD domain, BA.2 variant (SARS-CoV-2); test: ELISA on coated RBD
# T7 construct: also called RBD BA.2. variant
# [8] = target: T8, recombinant SARS-CoV-2 Spike RBD domain, BQ.1.1 variant (SARS-CoV-2); test: ELISA on coated RBD
# T8 construct: also called RBD BQ.1.1. variant
# [9] = target: T9, recombinant SARS-CoV-2 Spike RBD domain, XBB.1.16 variant (SARS-CoV-2); test: ELISA on coated RBD
# T9 construct: also called RBD XBB.1.16 variant
# [10] = target: T10, recombinant SARS-CoV-2 Spike RBD domain, BA.4/5 variant (SARS-CoV-2); test: ELISA on coated RBD
# T10 construct: also called RBD BA.4/5 variant
# [11] = target: T1, recombinant SARS-CoV-2 Spike RBD …; test: competition ELISA, blocking of RBD binding to ACE2 ectodomain
# [12] = target: T2, recombinant SARS-CoV-2 Spike RBD …; test: as above
# [13] = target: T3, recombinant SARS-CoV-2 Spike RBD …; test: as above
# [14] = target: T4, recombinant SARS-CoV-2 Spike RBD …; test: as above
# [15] = target: T5, recombinant SARS-CoV-2 Spike RBD …; test: as above
# [16] = target: T6, recombinant SARS-CoV-2 Spike RBD …; test: as above
# [17] = target: T7, recombinant SARS-CoV-2 Spike RBD …; test: as above
# [18] = target: T8, recombinant SARS-CoV-2 Spike RBD …; test: as above
# [19] = target: T9, recombinant SARS-CoV-2 Spike RBD …; test: as above
# [20] = target: T10, recombinant SARS-CoV-2 Spike RBD …; test: as above
# [21] = target: Spike protein of SARS-CoV-2 strain D614G (hCoV-19/France/GE1973/2020) (SARS-CoV-2, UniProt P0DTC2 14-1273); test: cell-based or functional assay
# [22] = target: Spike protein of SARS-CoV-2 strain EG.5.1 (hCoV-19/France/GES-IPP15954/2023) (SARS-CoV-2); test: cell-based or functional assay
# [23] = target: Spike protein of SARS-CoV-2 strain XBB.1.16 (hCoV-19/France/GES-IPP7712/2023) (SARS-CoV-2); test: cell-based or functional assay
# [24] = target: Spike protein of SARS-CoV-2 strain XBB.1.5 (GISAID EPI_ISL_16353849) (SARS-CoV-2); test: cell-based or functional assay
# [25] = target: Spike protein of SARS-CoV-2 strain BA.2.86 (hCoV-19/France/IDF-IPP17625/2023) (SARS-CoV-2); test: cell-based or functional assay
# [26] = target: Spike protein of SARS-CoV-2 strain JN.1 (hCoV-19/France/HDF-IPP21391/2023) (SARS-CoV-2); test: cell-based or functional assay
Binder,Binding AUC [1],Binding AUC [2],Binding AUC [3],Binding AUC [4],Binding AUC [5],Binding AUC [6],Binding AUC [7],Binding AUC [8],Binding AUC [9],Binding AUC [10],Blocking % [11] [%],Blocking % [12] [%],Blocking % [13] [%],Blocking % [14] [%],Blocking % [15] [%],Blocking % [16] [%],Blocking % [17] [%],Blocking % [18] [%],Blocking % [19] [%],Blocking % [20] [%],further results
B1,31,38,35,34,34,31,29,30,30,30,93,80,95,96,80,2,93,96,95,96,"IC50, S-Fuse neutralization of live virus [21]: 0.11 µg/mL; IC50, S-Fuse neutralization of live virus [22]: 2.8 µg/mL; IC50, S-Fuse neutralization of live virus [23]: 0.36 µg/mL; IC50, S-Fuse neutralization of live virus [24]: 0.12 µg/mL; IC50, S-Fuse neutralization of live virus [25]: 0.04 µg/mL; IC50, S-Fuse neutralization of live virus [26]: 54.6 µg/mL"
B2,33,39,31,30,33,38,29,31,30,31,91,94,97,91,95,66,95,97,97,95,"IC50, S-Fuse neutralization of live virus [21]: 0.11 µg/mL; IC50, S-Fuse neutralization of live virus [22]: 0.19 µg/mL; IC50, S-Fuse neutralization of live virus [23]: 0.18 µg/mL; IC50, S-Fuse neutralization of live virus [24]: 0.07 µg/mL; IC50, S-Fuse neutralization of live virus [25]: 0.03 µg/mL; IC50, S-Fuse neutralization of live virus [26]: 4.1 µg/mL"
B3,33,38,35,34,35,32,27,30,31,32,93,84,95,95,83,2,93,96,95,96,"IC50, S-Fuse neutralization of live virus [21]: 0.09 µg/mL; IC50, S-Fuse neutralization of live virus [22]: 2.86 µg/mL; IC50, S-Fuse neutralization of live virus [23]: 0.36 µg/mL; IC50, S-Fuse neutralization of live virus [24]: 0.12 µg/mL; IC50, S-Fuse neutralization of live virus [25]: 0.08 µg/mL; IC50, S-Fuse neutralization of live virus [26]: 50.9 µg/mL"
B4,32,39,32,29,32,28,26,31,30,30,88,86,92,91,70,0,92,95,92,91,"IC50, S-Fuse neutralization of live virus [21]: 0.09 µg/mL; IC50, S-Fuse neutralization of live virus [22]: 5.53 µg/mL; IC50, S-Fuse neutralization of live virus [23]: 0.32 µg/mL; IC50, S-Fuse neutralization of live virus [24]: 0.14 µg/mL; IC50, S-Fuse neutralization of live virus [25]: 0.19 µg/mL; IC50, S-Fuse neutralization of live virus [26]: 85.8 µg/mL"

# — US12281155 (INSTITUT PASTEUR, dated 2025)
